Here are results for 16 compounds from patent publication EP0331471A1, “High molecular weight prodrug derivatives of antiinflammatory drugs” (Larsen, Claus Selch, priority 1988, dated 1989).

Where two headings read alike, the source gives them in different places.

Data set [1] can be described thus: Water solubility of the conjugates (25°C).
Data set [2] is described as follows: Hydrolysis (release kinetics) of dextran ester prodrugs in aqueous buffer solution. Type of data set: physicochemical. Particulars: for t(10%) / Arrhenius equation: pH 4.48; for t(10%): time for 10% degradation, calculated from Arrhenius equations; for Ea: hydrolysis at pH 4.48, from slopes of Arrhenius type plots; for Arrhenius equation: kobs in hours⁻¹, T in degrees Kelvin; for kobs: ionic strength 0.5; for t(50%) at pH 7.40 and 37°C: 0.05 M phosphate buffer pH 7.40, 37°C.
Method: Release kinetics of the parent drug compounds from the corresponding dextran prodrugs of this invention was carried out in aqueous buffer solution over the pH range 4.5 - 10.0 at 37°C (and in order to determine the activation energies, at pH 4.5, from Arrhenius type plots at 50, 60, 65 and 70°C). […] The 1. order rate constants were derived from the slope of linear plots of log(B∞ -Bt) versus time and for the slow reactions by employing the initial rate method (e.g. (dBt/dt)i = kobsAo), where B∞ and Bt refer to the concentrations of regenerated parent drug at infinity and time t, respectively. (dBt/dt)i repre­sents the initial rate of parent drug formation, whereas kobs and Ao are the pseudo-first-order rate constant and the initial dextran prodrug concentration, respectively. For the fast reactions the initial concentration of the conjugates was in the range 5 - 25 mg/10 ml and for the slow reactions in the range 50 - 250 mg/10 ml. At various times an aliquot of the solutions was withdrawn and analyzed by HPLC for liberated free drug and in some cases for intact dextran prodrug.
A HPLC method was used for the determination of the generated free NSAIDs (the HPLC procedure was further used for determination of the degree of substitution of the polysaccharide prodrugs). […] The flow rate was 1.0 ml/min and the column effluent was monitored at 266 nm. […] Quantitation of the compounds was done by measurements of peak heights in relation to those of standards chromatographed under identical conditions.

For data set [3] the following is noted: pigs, from a previous study (8), cited from earlier work.

Take “O-[3-(11β,17-dihydroxy-6α-methylpregna-1,4-diene-3,20-dione-21-oxycarbonyl)propionyl]-dextran T-500 [Example 48]”: the water-solubility in data set [1] is given as more than 20 % w/v.

In data set [1], “O-[[2-(2,6-dichloroanilino)phenyl]acetyl]-dextran T-70 [Example 59]” came in with a water-solubility of more than 20 % w/v. Moreover, in data set [2] (5°C), the “t(10%)” value is on record as 21.3 years. In addition, the “t(10%)” value in data set [2] (25°C) is given as 0.65 years. Besides, in data set [2], the Ea came out at 28.73 kcal/mol and the Arrhenius equation is 1n kobs = 37.6 - 14,450/T (n = 5, r = 0.99). The kobs in data set [2] (pH 9.54, 37°C) came out at 3.01 h⁻¹.

In turn, “O-[2-(4-Isobutylphenyl)propionyl]-dextran T-10 [Example 54]” yielded a water-solubility in data set [1] of more than 20 % w/v. The “t(50%) at pH 7.40 and 37°C” value in data set [2] was determined as 140 hours.

Compound “O-[3-(11β,17-dihydroxy-6α-methylpregna-1,4-diene-3,20-dione-21-oxycarbonyl)propionyl]-dextran T-70 [Example 46]” came in with a water-solubility in data set [1] of more than 20 % w/v.

Regarding “O-[±)-2-(3-phenoxyphenol)propionyl]-dextran T-10 [Example 57]”, the water-solubility in data set [1] was more than 20 % w/v. In data set [2], the “t(50%) at pH 7.40 and 37°C” value worked out at 128 hours.

In data set [1], “O-[±)-2-(3-phenoxyphenol)propionyl]-dextran T-500 [Example 58]” had a water-solubility of more than 20 % w/v. The “t(50%) at pH 7.40 and 37°C” value in data set [2] is reported as 131 hours.

Compound “O-[[2-(2,6-dichloroanilino)phenyl]acetyl]-dextran T-500 [Example 61]” registered a water-solubility in data set [1] of more than 20 % w/v.

Compound “O-[±)-2-(3-phenoxyphenol)propionyl]-dextran T-70 [Example 56]” had a water-solubility in data set [1] of more than 20 % w/v. In data set [2], the “t(50%) at pH 7.40 and 37°C” value is given as 130 hours; the Ea turned out to be 25.41 kcal/mol; the Arrhenius equation is 1n kobs = 30.6 - 12,790/T (n = 5, r = 0.99). Also, in data set [2] (5°C), the “t(10%)” value is given as 59.7 years. Also, in data set [2] (25°C), the “t(10%)” value is 2.72 years. Further, the kobs in data set [2] (pH 10.00, 37°C) stood at 1.67 h⁻¹.

In data set [1], “O-[2-(4-Isobutylphenyl)propionyl]-dextran T-500 [Example 55]” showed a water-solubility of more than 20 % w/v. Besides, in data set [2], the “t(50%) at pH 7.40 and 37°C” value was found to be 141 hours.

“O-[3-(11β,17-dihydroxy-6α-methylpregna-1,4-diene-3,20-dione-21-oxycarbonyl)propionyl]-dextran T-40 [Example 47]” displayed a water-solubility in data set [1] of more than 20 % w/v.

Take “O-[2-(3-Benzoylphenyl)propionyl]-dextran T-10 [Example 51]”: the water-solubility in data set [1] is more than 20 % w/v. The “t(50%) at pH 7.40 and 37°C” value in data set [2] worked out at 93 hours.

In turn, “O-[2-(3-Benzoylphenyl)propionyl]-dextran T-500 [Example 52]” displayed a water-solubility in data set [1] of more than 20 % w/v. Besides, in data set [2], the “t(50%) at pH 7.40 and 37°C” value is given as 91 hours.

As to `COc1ccc2cc([C@H](C)C(=O)O)ccc2c1` [NAPROXEN, (+)-2-(6-methoxy-2-napthyl)propionic acid], the β in data set [3] (i.v., 3.6 mg naproxen equivalents) was 0.048 h⁻¹; in data set [3] (naproxen in plasma, p.o.), 0.049 h⁻¹.

In data set [1], “O-[[2-(2,6-dichloroanilino)phenyl]acetyl]-dextran T-10 [Example 60]” came in with a water-solubility of more than 20 % w/v.

With “O-[3-(11β,17-dihydroxy-pregn-4-ene-3,20-dione-21-oxycarbonyl)propionyl]-dextran T-70 [Example 49]”, in data set [1], the water-solubility is more than 20 % w/v.

“O-[2-(4-Isobutylphenyl)propionyl]-dextran T-70 [Example 53]”: in data set [2], the “t(50%) at pH 7.40 and 37°C” value came to 144 hours; the Ea amounted to 24.14 kcal/mol; the Arrhenius equation is recorded as 1n kobs =28.9 - 12,140/T (n = 5, r = 0.97). Moreover, in data set [2] (5°C), the “t(10%)” value is 31.5 years. The “t(10%)” value in data set [2] (25°C) is 1.68 years.
